According to publication PMC9009374:

Molecular target: Venus-tagged carboxy-tail segment of CaV1.2 (UniProt P15381)
Experiment: FRET or BRET

Sequence of UniProt P15381 (P15381 1525-2171): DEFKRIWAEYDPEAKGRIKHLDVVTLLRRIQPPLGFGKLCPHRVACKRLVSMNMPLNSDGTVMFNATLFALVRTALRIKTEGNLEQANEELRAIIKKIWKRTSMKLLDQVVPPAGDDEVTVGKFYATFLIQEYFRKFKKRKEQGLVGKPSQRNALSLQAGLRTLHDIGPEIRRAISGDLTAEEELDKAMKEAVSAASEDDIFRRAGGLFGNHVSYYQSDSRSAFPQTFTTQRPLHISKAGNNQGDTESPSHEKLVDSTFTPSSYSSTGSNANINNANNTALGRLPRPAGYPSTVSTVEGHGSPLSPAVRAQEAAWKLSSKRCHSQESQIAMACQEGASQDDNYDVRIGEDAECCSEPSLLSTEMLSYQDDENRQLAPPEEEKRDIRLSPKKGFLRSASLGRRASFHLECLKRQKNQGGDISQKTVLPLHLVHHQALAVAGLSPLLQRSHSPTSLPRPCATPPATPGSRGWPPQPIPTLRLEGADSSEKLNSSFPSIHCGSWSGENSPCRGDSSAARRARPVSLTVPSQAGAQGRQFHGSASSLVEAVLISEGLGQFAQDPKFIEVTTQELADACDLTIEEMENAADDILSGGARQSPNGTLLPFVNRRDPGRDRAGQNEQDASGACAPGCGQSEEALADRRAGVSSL

**Q.** How did the stoichiometry N turn out when “Cerulean-tagged calmodulin (CaM) (from UniProt P0DP23 1-149) (natural protein)” was run?
**A.** 1
